Where “and” joins values, the source holds several entries; their conditions need not be identical. Equal values may be shown once. Read-outs that look alike come from different tables or passages of the source.
Key:
[1] = biological target: T1, human CC chemokine receptor 4 (CCR4) (human, UniProt P51679 1-360); test: flow cytometry competition on CCRF-CEM cells; unlabelled TARC titrated, competitor biotinylated TARC (ca. 20 nM)
T1 construct: whole, on cells; Always presented on cells; also called CD194; human CCR4
T1 sequence (looked up): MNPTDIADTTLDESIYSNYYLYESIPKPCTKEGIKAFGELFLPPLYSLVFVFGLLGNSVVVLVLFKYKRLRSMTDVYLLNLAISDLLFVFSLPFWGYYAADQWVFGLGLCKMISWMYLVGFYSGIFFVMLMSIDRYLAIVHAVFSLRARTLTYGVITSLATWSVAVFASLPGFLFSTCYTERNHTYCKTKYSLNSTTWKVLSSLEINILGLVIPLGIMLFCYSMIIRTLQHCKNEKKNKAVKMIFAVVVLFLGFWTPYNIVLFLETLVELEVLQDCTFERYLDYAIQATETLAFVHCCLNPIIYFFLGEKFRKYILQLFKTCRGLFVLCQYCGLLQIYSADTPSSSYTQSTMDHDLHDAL
Method: (§1) The competition binding assays were performed with biotinylated MDC or biotinylated TARC on DT-40-CCR4+ and CCRF-CEM cells. DT40 and CCRF-CEM cells were cultured as described in Example 2. TARC and MDC were biotinylated using standard procedures. The biotinylation process causes some losses, so the concentrations of biotinylated MDC and TARC recited herein are approximate.
(§2) The cells were harvested from culture flasks, washed 2 times with PBS (400×g, 5 min, 4° C.) and resuspended in PBS containing 0.2% BSA and 0.09% NaN3. 1×10^5 cells per well were aliquoted into V-shaped 96-well plates (Greiner Bio-One, Frikenhausen, Germany). Cells were centrifuged (400×g, 5 min, 4° C.) and resuspended in 50 μl IgG, single chain or unlabeled ligand (1:10 dilution series starting on 100/500/26, 4 μg/ml) mixed with a fixed concentration of biotinylated ligand (10 or 20 nM, see legend to FIG. 24). The cells were incubated for 2 hours at 4° C. and mixed with a pipette every 45 min. The cells were washed three times with 150 μl PBS with 0.2% BSA and 0.09% NaN3 and stained with 3 μg/ml streptavidin PE (BD Biosciences) for 45 minutes at 4° C. […] Apparent binding affinities (KD) were calculated according to the following equation derived from previously described methods (Kipriyanov et al, 1997b; Schodin & Kranz, 1993): […]

[2] = biological target: T1, human CC chemokine receptor 4 (CCR4); test: flow cytometry competition on DT-40-CCR4+ cells; unlabelled TARC titrated, competitor biotinylated TARC (ca. 20 nM)
Method: as §1, §2

[3] = biological target: T1, human CC chemokine receptor 4 (CCR4); test: competition flow cytometry: unlabelled competitor against a fixed amount of biotinylated TARC; cell line not named on the sheet or in the legend
[4] = biological target: T1, human CC chemokine receptor 4 (CCR4); test: cell-based or functional assay
[5] = biological target: T1, human CC chemokine receptor 4 (CCR4); test: cell-based or functional assay; remark: listed apart in the source
[6] = biological target: T1, human CC chemokine receptor 4 (CCR4); test: cell-based or functional assay; remark: listed apart in the source
[7] = biological target: T1, human CC chemokine receptor 4 (CCR4); test: flow cytometry, IgG titration on CCR4+ DT40 cells; one site-specific binding fit (Prism); IgG titration on CCR4+ DT40 cells
Method: (§3) The IgG forms of antibodies 17G, 9E and KM3060var using various CCR4⁺ cell types were used (see Example 2).
(§4) For the flow cytometry experiments, the cells were harvested from the culture flasks, washed 2 times with PBS, re-suspended in PBS with 0.2% BSA and 0.09% NaN₃ and finally aliquoted 1×10⁵ cells per well into V-shaped 96-well plates (Greiner Bio-One, Frickenhausen, Germany). Cells were centrifuged at 400×g for 5 min and then incubated at 4° C. for 45 min with different antibody dilutions.
(§5) After washing with PBS with 0.2% BSA and 0.09% NaN₃, the cells were stained with 10 μg/ml of RPE-conjugated goat anti-human IgG (AbDSerotec, Düsseldorf, Germany) for 30 minutes at 4° C. The stained cells were washed, re-suspended in 200 μl PBS with 0.2% BSA and 0.09% NaN₃ and transferred to a U-shaped 96-well plate (Corning, Schiphol-Rijk, The Netherlands) for acquisition on EasyCyte flow cytometer (Guava Technologies, Hayward, Calif., USA).

[8] = biological target: T1, human CC chemokine receptor 4 (CCR4); test: flow cytometry, IgG titration on CCR4+ HEK293T cells; one site-specific binding fit (Prism); IgG titration on CCR4+ HEK293T cells
Method: as §3, §4, §5

[9] = biological target: T1, human CC chemokine receptor 4 (CCR4); test: flow cytometry, IgG titration on CCRF-CEM cells; one site-specific binding fit (Prism); IgG titration on CCRF-CEM cells (natural CCR4+ line)
Method: as §3, §4, §5

[10] = biological target: T1, human CC chemokine receptor 4 (CCR4); test: competition flow cytometry on CCR4-transfected DT40 cells: unlabelled IgG against 6.8 nM biotinylated KM3060var IgG, streptavidin-RPE
Method: To analyze the epitope binding of anti-CCR4 antibodies 17G, 9E and KM3060var, competition experiments were performed using flow cytometry. The binding of biotinylated antibodies to CCR4 transfected DT40-cells was challenged in the presence of different concentrations of non-biotinylated anti-CCR4 antibodies. The CCR4⁺ DT40 cells were harvested from culture flasks, washed 2 times with PBS, re-suspended in PBS with 0.2% BSA and 0.09% NaN₃ and finally aliquoted 1×10⁵ cells per well into V-shaped 96-well plates (Greiner Bio-One, Frickenhausen, Germany). Cells were centrifuged at 400×g for 5 min and then incubated at 4° C. for 3-4 hours with fixed amounts of biotinylated IgG and different concentrations of non-biotinylated antibodies. After washing with PBS with 0.2% BSA and 0.09% NaN₃, the cells were stained with 2.5 μg/ml of Streptavidin—RPE (BD Pharmingen, San Diego, Calif., USA) for 30 minutes at 4° C. The stained cells were washed, re-suspended in 250 μl PBS with 0.2% BSA and 0.09% NaN₃ and transferred to a U-shaped 96-well plate (Corning, Schiphol-Rijk, The Netherlands) for acquisition on EasyCyte flow cytometer (Guava Technologies, Hayward, Calif., USA). The results shown in FIGS. 10 A, B and C illustrate that the 17G and 9E antibodies have epitopes that are identical or at least overlapping.

[11] = biological target: T1, human CC chemokine receptor 4 (CCR4); test: flow cytometry, IgG titration on CCR4+ DT40 cells (2); one site-specific binding fit (Prism); IgG titration on CCR4+ DT40 cells, second experiment, DT40 (2)
Method: as §3, §4, §5

[12] = biological target: T1, human CC chemokine receptor 4 (CCR4); test: calculated from the IC50; CCRF-CEM cells, competitor biotinylated MDC
Method: as §1, §2

[13] = biological target: T1, human CC chemokine receptor 4 (CCR4); test: calculated from the IC50; DT-40-CCR4+ cells, competitor biotinylated MDC
Method: as §1, §2

[14] = biological target: T1, human CC chemokine receptor 4 (CCR4); test: flow cytometry competition on DT-40-CCR4+ cells; unlabelled MDC titrated, competitor biotinylated MDC (ca. 10 nM)
Method: as §1, §2

[15] = biological target: T1, human CC chemokine receptor 4 (CCR4); test: competition flow cytometry on CCRF-CEM cells: unlabelled competitor against ca. 20 nM biotinylated TARC, without BSA, streptavidin-PE [c]
Method: as §1, §2

[16] = biological target: T1, human CC chemokine receptor 4 (CCR4); test: competition flow cytometry on CCRF-CEM cells: unlabelled competitor against ca. 20 nM biotinylated TARC, with 1 % BSA, streptavidin-PE [d]
Method: as §1, §2

[17] = biological target: T1, human CC chemokine receptor 4 (CCR4); test: competition flow cytometry on DT-40-CCR4+ cells: unlabelled competitor against ca. 20 nM biotinylated TARC, without BSA, streptavidin-PE [a]
Method: as §1, §2

[18] = biological target: T1, human CC chemokine receptor 4 (CCR4); test: competition flow cytometry on DT-40-CCR4+ cells: unlabelled competitor against ca. 20 nM biotinylated TARC, with 1 % BSA, streptavidin-PE [b]
Method: as §1, §2

[19] = biological target: T1, human CC chemokine receptor 4 (CCR4); test: competition flow cytometry: unlabelled competitor against a fixed amount of biotinylated MDC; cell line not named on the sheet or in the legend

B1: thymus and activation regulated chemokine (TARC) (ligand, UniProt Q92583 24-94, looked up)
chain: ARGTNVGRECCLEYFKGAIPLRKLKTWYQTSEDCSRDAIVFVTVQGRAICSDPNNKRVKNAVKYLQSLERS
notes: also called CCL17; biotinylated TARC
- IC50 [1]: 43.4 nM and 31.8 nM
- IC50 [2]: 40.9 nM and 34.6 nM
- IC50 (read off the curve) [3]: ~0.3 nM

B2: KM3060var IgG (antibody, V domains shown)
VH: EVQLVESGGDLMKPGGSLKISCAASGFIFSNYGMSWVRQTPDMRLEWVATISSASTYSYYPDSVKGRFTISRDNAENSLYLQMNSLRSEDTGIYYCGRHSDGNFAFGYWGRGTLVTVSS
VL: DVLMTQTPLSLPVSLGDQASISCRSSRNIVHINGDTYLEWYLQRPGQSPKLLIYKVSNRFSGVPDRFSGSGSGTDFTLKISRVEAEDLGVYYCFQGSLLPWTFGGGTRLEIK
notes: Corresponds to KM3060 expressed in a different host; also called comparator KM3060var
- Ca++ flux in CCRF-CEM cells: signal response to MDC stimulation (% of MDC in the absence of IgGs), IgG 10 µg/mL [4]: 92%
- Ca++ flux in CCRF-CEM cells: signal response to TARC stimulation (% of TARC alone), IgG 10 µg/mL [4]: 104%
- ADCC of CCRF-CEM cells, EC50 (mean, N=3) [5]: 0.367 µg/mL
- ADCC of CCRF-CEM cells, EC50 (mean, N=3) [6]: 0.405 µg/mL
- Kd [7]: 3.67 nM
- Kd [8]: 11.4 nM
- Kd [9]: 79.8 nM
- IC50 (read off the curve) [10]: ~6 nM
- Kd [11]: 4.82 nM

B3: macrophage-derived chemokine (MDC) (ligand, UniProt O00626 25-93, looked up)
chain: GPYGANMEDSVCCRDYVRYRLPLRVVKHFYWTSDSCPRPGVVLLTFRDKEICADPRVPWVKMILNKLSQ
notes: also called CCL22; biotinylated MDC
- Kd [12]: 0.18 nM
- Kd [13]: 0.19 nM
- IC50 [14]: 10.8 nM
- IC50 (read off the curve) [15]: ~60 nM
- IC50 (read off the curve) [16]: ~7 nM
- IC50 (read off the curve) [17]: ~30 nM
- IC50 (read off the curve) [18]: ~30 nM
- IC50 (read off the curve) [19]: ~20 nM
